Test: UDP luminescence plate assay of E. coli extracts, mutants of SEQ ID No: 1, 2 mM metribuzin
Assay type: biochemical, Zea mays
Settings: for SIGNAL: metribuzin signal of mutant divided by the signal of w/t bx9: relative to bx9 w/t; for luminescence signal in the DMSO control: mutants of SEQ ID No: 1, DMSO in place of metribuzin (background UDP-glucose hydrolysis); for luminescence signal observed with 2 mM metribuzin: mutants of SEQ ID No: 1 in E. coli extracts, UDP luminescence; for RATIO of the metribuzin signal to the DMSO signal: 2 mM metribuzin vs DMSO control, same mutant
Procedure: Optionally plate assays are stopped with brief heating to 95 C before returning to ice and addition of UDP-Glo detection reagent followed by incubation at lab temperature. […] In addition a UDP standard curve is run alongside each set of plate tests.
Assays were carried out on extracts of E. coli BL21 DE3 expressing the various C-terminally his-tagged library variants of SEQ ID NO:1 at the amino acid positions listed in Table 11 as described in Example 2 except, in this case, with 2 mM metribuzin in place of herbicide V.
Thus the ratio of the metribuzin to DMSO signal as well as the increase in signal relative to the w/t bx9 is used to help distinguish those mutations most likely to offer the highest activity to metribuzin. A follow up assay monitored by, for example, LC MS is one method to distinguish these cases more quantitatively.

Row | Molecule | SIGNAL: metribuzin signal of mutant divided by metribuzin signal of w/t bx9 (2 mM metribuzin) | luminescence signal with metribuzin (2 mM metribuzin, H24A null background 1.00E+05 not subtracted) | SIGNAL: metribuzin signal of mutant divided by the signal of w/t bx9 (2 mM metribuzin) | luminescence signal in the DMSO control | luminescence signal observed with 2 mM metribuzin (2 mM metribuzin) | RATIO of the metribuzin signal to the DMSO signal
1 | A432P, M279F: double mutant of bx9 SEQ ID NO:1 (protein, Zea mays) MASSRTGAGAGGRVVVFPFPFQGHFNPVMRLARALHARGLAITVFHSGALDPADYPADYRFVPVTVEADPKLLASEDIAAIVTTLNASCDAPFRARLSALLAAEGRDSVRCVFTDVSWNAVLTASSDLGVPALGMMTASAASLRDYMAYRTLIDKGYLPVKEERKEDPVPELPPYLVKDLLRVDTSDLEEFAELLARTVTAARRASGLIFNTFPLIETDTLAEIHKALSVPVFAVAPLNKLVPTATASLHGVVQADRGCLQWLDTQQPGSVLYVSFGSFAAMDPHEFVELAWGLADSKRPFVWVVRPNLIRGFESGALPDGVEDEVRGRGIVVAWAPQEEVLAHPAVGGFLTHNGWNSTVEAISEGVPMVCCPRHGDQFGNMRYVCDVWKVGTELVGEQLERGQVKAAIDRLFGTKEGEEIKERMKEFKIAPAKGIGIGVDVDETASPRTDLTDLVDLIKSF | 1.68 | 2.08E+05 | 2.52 | 2.75E+05 | 7.06E+05 | 
2 | M136F (protein, Zea mays) MASSRTGAGAGGRVVVFPFPFQGHFNPVMRLARALHARGLAITVFHSGALDPADYPADYRFVPVTVEADPKLLASEDIAAIVTTLNASCDAPFRARLSALLAAEGRDSVRCVFTDVSWNAVLTASSDLGVPALGMFTASAASLRDYMAYRTLIDKGYLPVKEERKEDPVPELPPYLVKDLLRVDTSDLEEFAELLARTVTAARRASGLIFNTFPLIETDTLAEIHKALSVPVFAVAPLNKLVPTATASLHGVVQADRGCLQWLDTQQPGSVLYVSFGSMAAMDPHEFVELAWGLADSKRPFVWVVRPNLIRGFESGALPDGVEDEVRGRGIVVAWAPQEEVLAHPAVGGFLTHNGWNSTVEAISEGVPMVCCPRHGDQFGNMRYVCDVWKVGTELVGEQLERGQVKAAIDRLFGTKEGEEIKERMKEFKIAAAKGIGIGVDVDETASPRTDLTDLVDLIKSF |  |  | 0.93 | 2.57E+05 | 2.59E+05 | 1.00
3 | S117I: bx9 SEQ ID NO:1 mutant (protein, Zea mays) MASSRTGAGAGGRVVVFPFPFQGHFNPVMRLARALHARGLAITVFHSGALDPADYPADYRFVPVTVEADPKLLASEDIAAIVTTLNASCDAPFRARLSALLAAEGRDSVRCVFTDVIWNAVLTASSDLGVPALGMMTASAASLRDYMAYRTLIDKGYLPVKEERKEDPVPELPPYLVKDLLRVDTSDLEEFAELLARTVTAARRASGLIFNTFPLIETDTLAEIHKALSVPVFAVAPLNKLVPTATASLHGVVQADRGCLQWLDTQQPGSVLYVSFGSMAAMDPHEFVELAWGLADSKRPFVWVVRPNLIRGFESGALPDGVEDEVRGRGIVVAWAPQEEVLAHPAVGGFLTHNGWNSTVEAISEGVPMVCCPRHGDQFGNMRYVCDVWKVGTELVGEQLERGQVKAAIDRLFGTKEGEEIKERMKEFKIAAAKGIGIGVDVDETASPRTDLTDLVDLIKSF |  |  | 1.99 | 5.14E+05 | 5.56E+05 | 
4 | I81Y (protein, Zea mays) MASSRTGAGAGGRVVVFPFPFQGHFNPVMRLARALHARGLAITVFHSGALDPADYPADYRFVPVTVEADPKLLASEDIAAYVTTLNASCDAPFRARLSALLAAEGRDSVRCVFTDVSWNAVLTASSDLGVPALGMMTASAASLRDYMAYRTLIDKGYLPVKEERKEDPVPELPPYLVKDLLRVDTSDLEEFAELLARTVTAARRASGLIFNTFPLIETDTLAEIHKALSVPVFAVAPLNKLVPTATASLHGVVQADRGCLQWLDTQQPGSVLYVSFGSMAAMDPHEFVELAWGLADSKRPFVWVVRPNLIRGFESGALPDGVEDEVRGRGIVVAWAPQEEVLAHPAVGGFLTHNGWNSTVEAISEGVPMVCCPRHGDQFGNMRYVCDVWKVGTELVGEQLERGQVKAAIDRLFGTKEGEEIKERMKEFKIAAAKGIGIGVDVDETASPRTDLTDLVDLIKSF |  |  | 0.90 | 2.25E+05 | 2.53E+05 | 1.12
5 | I78Y: bx9 SEQ ID NO:1 mutant (protein, Zea mays) MASSRTGAGAGGRVVVFPFPFQGHFNPVMRLARALHARGLAITVFHSGALDPADYPADYRFVPVTVEADPKLLASEDYAAIVTTLNASCDAPFRARLSALLAAEGRDSVRCVFTDVSWNAVLTASSDLGVPALGMMTASAASLRDYMAYRTLIDKGYLPVKEERKEDPVPELPPYLVKDLLRVDTSDLEEFAELLARTVTAARRASGLIFNTFPLIETDTLAEIHKALSVPVFAVAPLNKLVPTATASLHGVVQADRGCLQWLDTQQPGSVLYVSFGSMAAMDPHEFVELAWGLADSKRPFVWVVRPNLIRGFESGALPDGVEDEVRGRGIVVAWAPQEEVLAHPAVGGFLTHNGWNSTVEAISEGVPMVCCPRHGDQFGNMRYVCDVWKVGTELVGEQLERGQVKAAIDRLFGTKEGEEIKERMKEFKIAAAKGIGIGVDVDETASPRTDLTDLVDLIKSF |  |  | 1.23 | 3.27E+05 | 3.44E+05 | 
6 | I81L (protein, Zea mays) MASSRTGAGAGGRVVVFPFPFQGHFNPVMRLARALHARGLAITVFHSGALDPADYPADYRFVPVTVEADPKLLASEDIAALVTTLNASCDAPFRARLSALLAAEGRDSVRCVFTDVSWNAVLTASSDLGVPALGMMTASAASLRDYMAYRTLIDKGYLPVKEERKEDPVPELPPYLVKDLLRVDTSDLEEFAELLARTVTAARRASGLIFNTFPLIETDTLAEIHKALSVPVFAVAPLNKLVPTATASLHGVVQADRGCLQWLDTQQPGSVLYVSFGSMAAMDPHEFVELAWGLADSKRPFVWVVRPNLIRGFESGALPDGVEDEVRGRGIVVAWAPQEEVLAHPAVGGFLTHNGWNSTVEAISEGVPMVCCPRHGDQFGNMRYVCDVWKVGTELVGEQLERGQVKAAIDRLFGTKEGEEIKERMKEFKIAAAKGIGIGVDVDETASPRTDLTDLVDLIKSF |  |  | 0.67 | 1.68E+05 | 1.87E+05 | 1.11
7 | L143W (protein, Zea mays) MASSRTGAGAGGRVVVFPFPFQGHFNPVMRLARALHARGLAITVFHSGALDPADYPADYRFVPVTVEADPKLLASEDIAAIVTTLNASCDAPFRARLSALLAAEGRDSVRCVFTDVSWNAVLTASSDLGVPALGMMTASAASWRDYMAYRTLIDKGYLPVKEERKEDPVPELPPYLVKDLLRVDTSDLEEFAELLARTVTAARRASGLIFNTFPLIETDTLAEIHKALSVPVFAVAPLNKLVPTATASLHGVVQADRGCLQWLDTQQPGSVLYVSFGSMAAMDPHEFVELAWGLADSKRPFVWVVRPNLIRGFESGALPDGVEDEVRGRGIVVAWAPQEEVLAHPAVGGFLTHNGWNSTVEAISEGVPMVCCPRHGDQFGNMRYVCDVWKVGTELVGEQLERGQVKAAIDRLFGTKEGEEIKERMKEFKIAAAKGIGIGVDVDETASPRTDLTDLVDLIKSF |  |  | 0.97 | 2.42E+05 | 2.72E+05 | 1.12
8 | L143F (protein, Zea mays) MASSRTGAGAGGRVVVFPFPFQGHFNPVMRLARALHARGLAITVFHSGALDPADYPADYRFVPVTVEADPKLLASEDIAAIVTTLNASCDAPFRARLSALLAAEGRDSVRCVFTDVSWNAVLTASSDLGVPALGMMTASAASFRDYMAYRTLIDKGYLPVKEERKEDPVPELPPYLVKDLLRVDTSDLEEFAELLARTVTAARRASGLIFNTFPLIETDTLAEIHKALSVPVFAVAPLNKLVPTATASLHGVVQADRGCLQWLDTQQPGSVLYVSFGSMAAMDPHEFVELAWGLADSKRPFVWVVRPNLIRGFESGALPDGVEDEVRGRGIVVAWAPQEEVLAHPAVGGFLTHNGWNSTVEAISEGVPMVCCPRHGDQFGNMRYVCDVWKVGTELVGEQLERGQVKAAIDRLFGTKEGEEIKERMKEFKIAAAKGIGIGVDVDETASPRTDLTDLVDLIKSF |  |  | 1.23 | 3.18E+05 | 3.45E+05 | 1.09
9 | S117V: bx9 SEQ ID NO:1 mutant (protein, Zea mays) MASSRTGAGAGGRVVVFPFPFQGHFNPVMRLARALHARGLAITVFHSGALDPADYPADYRFVPVTVEADPKLLASEDIAAIVTTLNASCDAPFRARLSALLAAEGRDSVRCVFTDVVWNAVLTASSDLGVPALGMMTASAASLRDYMAYRTLIDKGYLPVKEERKEDPVPELPPYLVKDLLRVDTSDLEEFAELLARTVTAARRASGLIFNTFPLIETDTLAEIHKALSVPVFAVAPLNKLVPTATASLHGVVQADRGCLQWLDTQQPGSVLYVSFGSMAAMDPHEFVELAWGLADSKRPFVWVVRPNLIRGFESGALPDGVEDEVRGRGIVVAWAPQEEVLAHPAVGGFLTHNGWNSTVEAISEGVPMVCCPRHGDQFGNMRYVCDVWKVGTELVGEQLERGQVKAAIDRLFGTKEGEEIKERMKEFKIAAAKGIGIGVDVDETASPRTDLTDLVDLIKSF |  |  | 1.18 | 3.38E+05 | 3.30E+05 | 
